Test results: patent US20240109962A1 (SPARX BIOSCIENCE, published 2024)
Like-named read-outs stand apart in the source and are kept apart here.

What was measured:
[1] = molecular target: LILRB2 antigen of the ELISA of Table 5 (format not specified) (UniProt Q8N423 22-460, limits assumed); experiment: ELISA, antibody titration
LILRB3-His = molecular target: T1, LILRB3-His; experiment: ELISA on recombinant His-tagged protein, OD450
T1 construct: also called His-tagged LILRB3; recombinant LILRB3 protein

[2] = molecular target: T2, human LILRB3 expressed on 293T cells (human, UniProt O75022 24-631); experiment: flow cytometry on 293T transfectants, MFI
T2 construct: whole, on cells
Procedure: (§1) The cells were then immobilized with glutaraldehyde in the presence of 5% defatted milk at room temperature for 2 hours. An anti-LILRB2 antibody (5 μg/ml) was added to each well and incubated at room temperature for 1 hours. An Alex Flour®-labelled goat anti-mouse secondary antibody (1:2,000 dilution) was then added into each well and incubated at room temperature for 30′. The cells were washed twice with PBS after the staining. Fluorescence intensities (MFI) were measured.

[3] = molecular target: T3, human LILRB2 expressed on cells (293T-LILRB2, CHO-K1-LILRB2) (human, UniProt Q8N423 22-597); experiment: flow cytometry, blockade of His-tagged HLA-G tetramer binding to 293T-LILRB2 cells; fit table under the graph
T3 construct: whole, on cells; the cell line is named under assay; also called HEK293T-LILRB2
Procedure: (§2) Serial diluted humanized LILRB2 antibodies were then added to the mixture and incubated at room temperature for another 45 minutes. The binding of HLA-G/LILRB2 was detected afterwards using a secondary PE-labeled anti-His tag antibody via flow cytometry.

[4] = molecular target: T3, human LILRB2 expressed on cells …; experiment: flow cytometry, His-HLA-A2 tetramer (competitor) bound to 293T-LILRB2 cells, relative to no antibody; parameters: concentration or dose not given beside the values
Procedure: Serial diluted h#2E1 antibodies were then added to the mixture and incubated at room temperature for another 45 minutes. […]

[5] = molecular target: T4, recombinant human LILRB2 protein (human, UniProt Q8N423 22-460, limits assumed); experiment: ELISA, coated recombinant human LILRB2; parameters: unit not given here
T4 construct: also called recombinant LILRB2 protein
Procedure: This affinity maturation library was screened against human LILRB2 to identify antibodies having high binding affinity to LILRB2. Briefly, an ELISA plate was coated with 0.1 ug/well recombinant human LILRB2 protein. Serial diluted maturated h#2E1 antibodies were incubated in the LILRB2 coated plate for 2 hrs. The plate was washed and a secondary HRP-labeled anti-human IgG was then added to each well. After being incubated at room temperature for 1 hour, the colorimetric ELISA signals were developed by adding the TMB substrate and reaction was stopped by 1M H3PO4. Table 7 below provides binding activities of exemplary matured antibodies to recombinant LILRB2 protein.

[6] = molecular target: T3, human LILRB2 expressed on cells …; experiment: flow cytometry, 293T-LILRB2 cells
Description: The fluorescent signals were detected by flow cytometry.

[7] = molecular target: T3, human LILRB2 expressed on cells …; experiment: flow cytometry, blockade of His-tagged HLA-G tetramer binding to 293T-LILRB2 cells; fit table under the graph; remark: listed apart in the source
Procedure: as §2

[8] = molecular target: T5, human LILRB1 expressed on 293T cells (human, UniProt Q8NHL6 24-650); experiment: flow cytometry on 293T transfectants, MFI
T5 construct: whole, on cells
Procedure: as §1

T3 sequence (Q8N423 22-597): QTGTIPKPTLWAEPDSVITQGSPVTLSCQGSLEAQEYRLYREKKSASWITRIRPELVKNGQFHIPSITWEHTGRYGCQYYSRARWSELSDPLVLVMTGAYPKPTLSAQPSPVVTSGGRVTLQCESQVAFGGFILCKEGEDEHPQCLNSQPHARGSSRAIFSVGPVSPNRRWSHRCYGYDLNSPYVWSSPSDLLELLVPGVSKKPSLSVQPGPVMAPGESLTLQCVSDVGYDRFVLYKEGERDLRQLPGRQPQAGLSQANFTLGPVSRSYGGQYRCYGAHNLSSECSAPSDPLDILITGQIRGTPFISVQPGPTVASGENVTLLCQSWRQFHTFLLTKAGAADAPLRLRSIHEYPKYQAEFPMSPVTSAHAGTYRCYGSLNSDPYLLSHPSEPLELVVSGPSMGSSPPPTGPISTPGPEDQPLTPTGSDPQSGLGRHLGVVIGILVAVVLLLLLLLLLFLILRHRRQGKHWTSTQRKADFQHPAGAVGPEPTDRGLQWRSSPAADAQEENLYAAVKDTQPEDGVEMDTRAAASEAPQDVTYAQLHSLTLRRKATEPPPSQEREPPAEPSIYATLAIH
T4 sequence (Q8N423 22-460 limits assumed): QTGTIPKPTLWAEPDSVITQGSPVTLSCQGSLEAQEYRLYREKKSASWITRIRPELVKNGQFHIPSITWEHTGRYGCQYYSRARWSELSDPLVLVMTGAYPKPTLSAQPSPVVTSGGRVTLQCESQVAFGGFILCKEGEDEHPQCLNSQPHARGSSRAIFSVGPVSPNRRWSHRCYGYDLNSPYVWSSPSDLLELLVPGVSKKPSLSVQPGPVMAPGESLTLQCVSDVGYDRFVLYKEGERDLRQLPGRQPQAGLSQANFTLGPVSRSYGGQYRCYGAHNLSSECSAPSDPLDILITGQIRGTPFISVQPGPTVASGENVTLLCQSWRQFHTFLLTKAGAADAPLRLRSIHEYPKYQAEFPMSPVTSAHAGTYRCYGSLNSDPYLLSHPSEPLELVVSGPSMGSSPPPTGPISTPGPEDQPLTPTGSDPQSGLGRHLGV
Sequence of LILRB2 antigen of the ELISA of Table 5 (format not specified) (Q8N423 22-460 limits assumed): as above
T5 sequence (Q8NHL6 24-650): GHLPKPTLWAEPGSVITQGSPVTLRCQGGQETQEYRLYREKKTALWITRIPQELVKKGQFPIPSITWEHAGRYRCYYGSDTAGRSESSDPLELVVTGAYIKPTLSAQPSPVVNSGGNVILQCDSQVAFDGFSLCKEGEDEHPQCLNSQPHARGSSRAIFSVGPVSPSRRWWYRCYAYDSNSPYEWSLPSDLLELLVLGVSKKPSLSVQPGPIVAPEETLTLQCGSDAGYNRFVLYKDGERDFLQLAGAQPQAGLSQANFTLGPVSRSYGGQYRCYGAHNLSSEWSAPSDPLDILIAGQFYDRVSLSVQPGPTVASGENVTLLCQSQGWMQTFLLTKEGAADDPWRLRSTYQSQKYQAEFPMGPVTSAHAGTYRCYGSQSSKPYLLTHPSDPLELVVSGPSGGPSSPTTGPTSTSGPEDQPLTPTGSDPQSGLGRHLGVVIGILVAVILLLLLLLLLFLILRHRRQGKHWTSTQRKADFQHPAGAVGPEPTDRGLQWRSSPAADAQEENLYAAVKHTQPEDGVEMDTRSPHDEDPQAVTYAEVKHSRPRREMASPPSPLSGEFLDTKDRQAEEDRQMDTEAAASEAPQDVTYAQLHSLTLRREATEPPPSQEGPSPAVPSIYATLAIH

Binder | Kd [1] [nM] | binding result (LILRB3-His) | binding result [2] | IC50 [3] [nM] | Span [3] [RFU] | % no Ab [4] [%] | Bmax [5] | Bmax [6] | IC50 [7] [nM] | Span [7] [RFU] | binding result [8]
Antibody 2E1_FC3 (antibody, V domains shown) VH: EVQLVESGGGLVQPGGSLRLSCAVSGYSITSGYYWNWIRQAPGKGLEWVAYISYDGNTNYNPSLKNRFTISRDTSKNTFYLQMNSLRAEDTAVYYCAREESTMITTAWFAYWGQGTLVTVSS VL: DIQMTQSPSSLSASVGDRVTITCRASENIYSNLAWYQQKPGKAPKLLIYGATNLASGVPSRFSGSGSGTDYTLTISSLQPEDFATYYCQHFWDTPYTFGQGTKVEIK |  |  |  | 0.122 | 9690 | 52.1 | 1.29 | 456000 |  |  | 
Antibody 2E1_GD9 (antibody, V domains shown) VH: EVQLVESGGGLVQPGGSLRLSCAVSGYSITSGYYWNWIRQAPGKGLEWVAYISYDGNNNYNPSLKNRFTISRDTSKNTFYLQMNSLRAEDTAVYYCAREESTMITTAWFAYWGQGTLVTVSS VL: DIQMTQSPSSLSASVGDRVTITCRASENIFSNLAWYQQKPGKAPKLLIYGATNLASGVPSRFSGSGSGTDYTLTISSLQPEDFATYYCQHFWDTPYTFGQGTKVEIK |  |  |  |  |  | 52.9 | 1.39 | 724000 |  |  | 
Antibody 2E1_GB11 (antibody, V domains shown) VH: EVQLVESGGGLVQPGGSLRLSCAVSGYSITSGYYWNWIRQAPGKGLEWVAYISYDGNNNYNPSLKNRFTISRDTSKNTFYLQMNSLRAEDTAVYYCAREESTMITTAWFAYWGQGTLVTVSS VL: DIQMTQSPSSLSASVGDRVTITCRASENIYSNLAWYQQKPGKAPKLLIYGATNLALGVPSRFSGSGSGTDYTLTISSLQPEDFATYYCQHFWDTPYTFGQGTKVEIK |  |  |  |  |  | 50.1 | 1.16 | 627000 | 0.59 | 8170 | 
Antibody 2E1_FH9 (antibody, V domains shown) VH: EVQLVESGGGLVQPGGSLRLSCAVSGYSITSGYYWNWIRQAPGKGLEWVAYISYDGNNLYNPSLKNRFTISRDTSKNTFYLQMNSLRAEDTAVYYCAREESTMITTAWFAYWGQGTLVTVSS VL: DIQMTQSPSSLSASVGDRVTITCRASENIYSNLAWYQQKPGKAPKLLIYGATNLASGVPSRFSGSGSGTDYTLTISSLQPEDFATYYCQHFWDTPYTFGQGTKVEIK |  |  |  |  |  | 47.1 | 1.24 | 684000 |  |  | 
Antibody 2E1_FH2 (antibody, V domains shown) VH: EVQLVESGGGLVQPGGSLRLSCAVSGYSITSGYYWNWIRQAPGKGLEWVASISYDGNNNYNPSLKNRFTISRDTSKNTFYLQMNSLRAEDTAVYYCAREESTMITTAWFAYWGQGTLVTVSS VL: DIQMTQSPSSLSASVGDRVTITCRASENIYSNLAWYQQKPGKAPKLLIYGATNLASGVPSRFSGSGSGTDYTLTISSLQPEDFATYYCQHFWDTPYTFGQGTKVEIK |  |  |  |  |  | 51.5 | 0.989 | 420000 |  |  | 
Antibody 2E1_FF4 (antibody, V domains shown) VH: EVQLVESGGGLVQPGGSLRLSCAVSGYSITSGYYWNWIRQAPGKGLEWVAYISYDGNNWYNPSLKNRFTISRDTSKNTFYLQMNSLRAEDTAVYYCAREESTMITTAWFAYWGQGTLVTVSS VL: DIQMTQSPSSLSASVGDRVTITCRASENIYSNLAWYQQKPGKAPKLLIYGATNLASGVPSRFSGSGSGTDYTLTISSLQPEDFATYYCQHFWDTPYTFGQGTKVEIK |  |  |  | 0.254 | 6670 | 53.3 | 1.59 | 462000 |  |  | 
Antibody 2E1_GB1 (antibody, V domains shown) VH: EVQLVESGGGLVQPGGSLRLSCAVSGYSITSGYSWNWIRQAPGKGLEWVAYISYDGNNNYNPSLKNRFTISRDTSKNTFYLQMNSLRAEDTAVYYCAREESTMITTAWFAYWGQGTLVTVSS VL: DIQMTQSPSSLSASVGDRVTITCRASENIYSNLAWYQQKPGKAPKLLIYGATNLASGVPSRFSGSGSGTDYTLTISSLQPEDFATYYCQHFWDTPYTFGQGTKVEIK |  |  |  |  |  | 50.9 | 1.01 | 637000 |  |  | 
Antibody 2E1_FD3 (antibody, V domains shown) VH: EVQLVESGGGLVQPGGSLRLSCAVSGYSITSGYYWNWIRQAPGKGLEWVAYISYDGNANYNPSLKNRFTISRDTSKNTFYLQMNSLRAEDTAVYYCAREESTMITTAWFAYWGQGTLVTVSS VL: DIQMTQSPSSLSASVGDRVTITCRASENIYSNLAWYQQKPGKAPKLLIYGATNLASGVPSRFSGSGSGTDYTLTISSLQPEDFATYYCQHFWDTPYTFGQGTKVEIK |  |  |  | 0.232 | 6750 | 51 | 1.28 | 460000 |  |  | 

Continued, values first:

Kd [1] [nM] | binding result (LILRB3-His) | binding result [2] | IC50 [3] [nM] | Span [3] [RFU] | % no Ab [4] [%] | Bmax [5] | Bmax [6] | IC50 [7] [nM] | Span [7] [RFU] | binding result [8] | Binder
1.39 | no binding | no binding (tested: 5 µg/ml) |  |  |  |  |  |  |  |  | Antibody 13H5 (antibody, V domains shown, Mouse hybridoma mAb purified from ascites) VH: EIQLQQSGPELVKPGTSVKVSCKASGSSFTDYNMYWVKQSHGKSLDWIGYIDPYNGRTTYNQKFRGKATLTVDKSSSTAFMHLNSLTSEDSAVYYCARGDYFDYWGQGTSLTVSS VL: EIQMTQTTSSLSASLGDRVTISCSASQGISNYLNWFQQKPDGTVKLLIYYTSTLHSGVPSRFSGSGSGTDFSLTISNLDPEDFATYYCQQYSNLPYTFGGGTKLEIK
 |  |  |  |  | 46.6 | 1.26 | 678000 | 0.596 | 5760 |  | Antibody 2E1_GH6 (antibody, V domains shown) VH: EVQLVESGGGLVQPGGSLRLSCAVSGYSITSGYHWNWIRQAPGKGLEWVAYISYDGNNNYNPSLKNRFTISRDTSKNTFYLQMNSLRAEDTAVYYCAREESTMITTAWFAYWGQGTLVTVSS VL: DIQMTQSPSSLSASVGDRVTITCRASENIYSNLAWYQQKPGKAPKLLIYGATNLASGVPSRFSGSGSGTDYTLTISSLQPEDFATYYCQHFWDTPYTFGQGTKVEIK
 |  |  |  |  | 47.9 | 1.5 | 706000 | 0.331 | 6980 |  | Antibody 2E1_GF1 (antibody, V domains shown) VH: EVQLVESGGGLVQPGGSLRLSCAVSGYSITSGYYWNWIRQAPGKGLEWVAYISYDGNNNYNPSLKNRFTISRDTSKNTFYLQMNSLRAEDTAVYYCAREESTMITTAWFAYWGQGTLVTVSS VL: DIQMTQSPSSLSASVGDRVTITCRASEVIYSNLAWYQQKPGKAPKLLIYGATNLASGVPSRFSGSGSGTDYTLTISSLQPEDFATYYCQHFWDTPYTFGQGTKVEIK
 |  |  |  |  | 46.2 | 1.37 | 658000 |  |  |  | Antibody 2E1_GE11 (antibody, V domains shown) VH: EVQLVESGGGLVQPGGSLRLSCAVSGYSITSGYSWNWIRQAPGKGLEWVAYISYDGNNNYNPSLKNRFTISRDTSKNTFYLQMNSLRAEDTAVYYCAREESTMITTAWFAYWGQGTLVTVSS VL: DIQMTQSPSSLSASVGDRVTITCGASENIYSNLAWYQQKPGKAPKLLIYGATELASGVPSRFSGSGSGTDYTLTISSLQPEDFATYYCQHFWDTPYTFGQGTKVEIK
 |  |  |  |  | 46.2 | 1.14 | 639000 |  |  |  | Antibody 2E1_GF9 (antibody, V domains shown) VH: EVQLVESGGGLVQPGGSLRLSCAVSGYSITSGYSWNWIRQAPGKGLEWVAYISYDGNNNYNPSLKNRFTISRDTSKNTFYLQMNSLRAEDTAVYYCAREESTMITTAWFAYWGQGTLVTVSS VL: DIQMTQSPSSLSASVGDRVTITCRASETIYSNLAWYQQKPGKAPKLLIYGATNLAAGVPSRFSGSGSGTDYTLTISSLQPEDFATYYCQHFWDTPYTFGQGTKVEIK
0.314 |  | no binding (tested: 5 µg/ml) |  |  |  |  |  |  |  | no binding (tested: 5 µg/ml) | Antibody 13C5 (antibody, V domains shown, Mouse hybridoma mAb purified from ascites) VH: QVQLKQSGPGLVQPSQSLSITCTVSGFSLTTFGVHWVRQSPGKGLEWLGVIWRGGSTDYNAAFMSRLSITKDNSKSQVFFKMNSLQADDTAIYYCAKNPYQYGSSHYYAMDYWGQGTSVTVSS VL: DIVMTQSPSSLSVSAGEKVTMSCKSSQSLLNSGNQKNYLAWYQQKPGQPPKLLIYGASTRESGVPDRFTGSGSGTVFTLTISSVQAEDLAVYYCQNDHILPFTFGSGTKLEIK
